Data: publication PMC7092467, “Transaldolase in Bacillus methanolicus: biochemical characterization and biological role in ribulose monophosphate cycle” (BMC Microbiology, 2020)

Columns and labels:
[1] = molecular target: Recreated full-length transaldolase of Bacillus methanolicus MGA3 (Ta^MGA3rec), C-terminal hexahistidine-tagged (Bacillus methanolicus MGA3); assay: SEC; gel filtration of 1 mg purified Ta dissolved in 2 ml of 20 mM Tris-HCl, pH 7.8, with Ta activity assays of the eluted fractions; eluted in a single fraction corresponding to 54 kDa
purified protein = substrate: O=C[C@H](O)[C@H](O)COP(=O)(O)O; assay: purified protein; format: biochemical, Bacillus methanolicus; conditions: co-substrate F6P, 50 mM Tris-HCl pH 7.8, 50 °C, 0.25 mM NADH
[2] = molecular target: the molecule itself; assay: SEC; gel filtration of 1 mg purified Ta dissolved in 2 ml of 20 mM Tris-HCl, pH 7.8, with Ta activity assays of the eluted fractions; eluted in a single fraction corresponding to 54 kDa

Row | stoichiometry N [1] | Molecule | Km (purified protein) | Vmax (purified protein) | kcat (purified protein) | kcat/Km (purified protein) | stoichiometry N [2]
1 | 2 | Recreated full-length transaldolase of Bacillus methanolicus MGA3 (Ta^MGA3rec), C-terminal hexahistidine-tagged (enzyme) |  |  |  |  | 
2 |  | Transaldolase of Bacillus methanolicus PB1 (Ta^PB1), C-terminal hexahistidine-tagged (enzyme, UniProt I3E1B6 1-229, looked up, Transaldolase (Ta) of Bacillus methanolicus PB1, UniProt I3E1B6; also called PB1 Ta protein; PB1 Ta gene product; source: E. coli BL21 (DE3), pET28b-ta^PB1, purified (Ni-NTA chromatography)) MIQNSIQRNKGGVIIKFFIDTANIDEIREAHSLGILSGVTTNPSLVAKEKNVKFHDRLREIAGLVPGSVSAEVIALDTEGMIKEGRELASIAPNITVKVPMTPESLKAVHALSKEGIKTNVTLIFSANQALLAARAGATYVSPFLGRLDDIGHNGLELISTIADIFAIHQIKTEIIAASIRHPQHVTEAALKGAHIATLPYKVILQLFKHPLTDKGIEAFLADWKKRGQ | 2500 µM | 8.9 U/mg | 4 s⁻¹ | 1.6 s^− 1 mM^− 1 | 2
